Data: publication doi:10.1101/2023.04.03.535447

Columns and labels:
ACE2 receptor [1] = target: ACE2 receptor (UniProt Q9BYF1); experiment: ELISA; competitive ELISA of ACE2 binding; Alhydrogel-adsorbed DCFHP incubated overnight at 4, 40 or 50 °C, compared with a reference sample adsorbed on the day of the assay
ACE2 receptor [2] = target: ACE2 receptor (UniProt Q9BYF1); experiment: ELISA; competitive ELISA of ACE2 binding; DCFHP 100% adsorbed to Alhydrogel (no phosphate), time zero against storage at 4 °C for 3-21 days (mean 10 days); read-out is the native antigen concentration against a reference, target 50 mcg/mL

Chain of UniProt Q9BYF1 (Q9BYF1 18-805): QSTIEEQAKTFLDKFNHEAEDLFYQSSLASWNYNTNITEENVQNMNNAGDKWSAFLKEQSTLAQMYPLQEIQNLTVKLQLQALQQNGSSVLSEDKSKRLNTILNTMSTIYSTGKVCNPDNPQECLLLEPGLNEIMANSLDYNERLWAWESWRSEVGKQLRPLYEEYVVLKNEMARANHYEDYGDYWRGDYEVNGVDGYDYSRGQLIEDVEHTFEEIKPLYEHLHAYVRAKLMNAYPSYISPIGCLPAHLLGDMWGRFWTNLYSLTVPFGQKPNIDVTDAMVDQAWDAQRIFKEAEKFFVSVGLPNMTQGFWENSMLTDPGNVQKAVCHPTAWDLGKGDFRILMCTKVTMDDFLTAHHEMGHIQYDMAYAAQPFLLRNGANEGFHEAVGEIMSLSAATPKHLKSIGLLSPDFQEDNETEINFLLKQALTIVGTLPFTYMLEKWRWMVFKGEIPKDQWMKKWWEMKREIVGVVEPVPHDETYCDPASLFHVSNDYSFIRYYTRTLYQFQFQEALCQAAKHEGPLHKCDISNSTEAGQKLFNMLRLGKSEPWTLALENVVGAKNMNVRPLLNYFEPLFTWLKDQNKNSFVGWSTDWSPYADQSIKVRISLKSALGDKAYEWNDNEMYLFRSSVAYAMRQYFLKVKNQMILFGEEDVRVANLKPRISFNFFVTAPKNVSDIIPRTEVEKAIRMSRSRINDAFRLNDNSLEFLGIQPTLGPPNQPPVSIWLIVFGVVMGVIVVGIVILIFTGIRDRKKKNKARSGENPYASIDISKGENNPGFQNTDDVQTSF

Delta-C70-Ferritin-HexaPro SARS-CoV-2 spike ferritin nanoparticle produced in Expi293 cells
loss of ACE2 binding after overnight incubation at 40°C (AH-adsorbed) (ACE2 receptor [1]): 60% | loss of ACE2 binding after overnight incubation at 50°C (AH-adsorbed) (ACE2 receptor [1]): 80% | native antigen concentration by ACE2 competitive ELISA, freshly adsorbed (time zero) (ACE2 receptor [2]): 48 µg/mL | native antigen concentration by ACE2 competitive ELISA, stored at 4°C for 3-21 days (ACE2 receptor [2]): 75 µg/mL
